Measurements from the supplement of paper PMC10065799, “High-throughput profiling of sequence recognition by tyrosine kinases and SH2 domains using bacterial peptide display” (eLife, 2023).

Key:
AncSZ = assay: phosphorylation enrichment, bacterial display (enrichment ratio); higher = better substrate or ligand; peptides without Tyr show the background
EPHB1 = EPHB1 (UniProt P54762); assay: as above
EPHB2 = EPHB2 (UniProt P29323); assay: as above
FGFR1 = FGFR1 (UniProt P11362); assay: as above
FGFR3 = FGFR3 (UniProt P22607); assay: as above
Fer (mouse) = assay: as above
Fes = Fes (UniProt P07332); assay: as above
Fyn = Fyn (UniProt P06241); assay: as above
Hck = Hck (UniProt P08631); assay: as above
Jak2 = Jak2 (UniProt O60674); assay: as above
MERTK = MERTK (UniProt Q12866); assay: as above
c-Abl (mouse) = assay: as above
c-Src = assay: as above
Grb2 SH2 = Grb2 SH2 (UniProt P62993); assay: SH2 binding enrichment of the phosphorylated peptide, bacterial display (enrichment ratio); higher = better substrate or ligand; peptides without Tyr show the background
SHP2-C SH2 = assay: as above
c-Src SH2 = assay: as above
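Throughout, for SH2 binding enrichment of the phosphorylated peptide, bacterial display: peptide library displayed on the E. coli surface as eCPX fusions, selected cells deep-sequenced, score is each peptide's frequency after selection divided by its frequency in the input.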
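Throughout, for phosphorylation enrichment, bacterial display: 11-residue human phosphosite peptides and single-mutation variants displayed on the E. coli surface, counted by deep sequencing, each peptide's frequency after selection divided by its frequency in the unselected input library; frequency after pTyr selection over input frequency; kinase dosed for 20-30% of maximal phosphorylation in three min.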

Hck, sequence (P08631 whole entry, looked up): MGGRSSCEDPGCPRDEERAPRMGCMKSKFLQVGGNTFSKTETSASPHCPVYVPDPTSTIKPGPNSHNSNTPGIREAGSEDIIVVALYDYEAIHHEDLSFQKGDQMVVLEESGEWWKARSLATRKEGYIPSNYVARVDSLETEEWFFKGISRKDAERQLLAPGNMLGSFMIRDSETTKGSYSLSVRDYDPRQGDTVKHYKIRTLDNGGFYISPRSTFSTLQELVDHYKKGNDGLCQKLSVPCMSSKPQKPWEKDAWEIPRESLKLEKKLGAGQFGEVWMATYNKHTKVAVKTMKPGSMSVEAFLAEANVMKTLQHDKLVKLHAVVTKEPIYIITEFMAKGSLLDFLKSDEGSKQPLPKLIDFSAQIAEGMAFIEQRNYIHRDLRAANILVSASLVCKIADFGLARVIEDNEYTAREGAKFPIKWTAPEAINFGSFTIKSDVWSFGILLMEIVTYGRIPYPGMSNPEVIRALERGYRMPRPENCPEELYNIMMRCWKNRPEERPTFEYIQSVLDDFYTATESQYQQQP
Fyn, sequence (P06241 whole entry, looked up): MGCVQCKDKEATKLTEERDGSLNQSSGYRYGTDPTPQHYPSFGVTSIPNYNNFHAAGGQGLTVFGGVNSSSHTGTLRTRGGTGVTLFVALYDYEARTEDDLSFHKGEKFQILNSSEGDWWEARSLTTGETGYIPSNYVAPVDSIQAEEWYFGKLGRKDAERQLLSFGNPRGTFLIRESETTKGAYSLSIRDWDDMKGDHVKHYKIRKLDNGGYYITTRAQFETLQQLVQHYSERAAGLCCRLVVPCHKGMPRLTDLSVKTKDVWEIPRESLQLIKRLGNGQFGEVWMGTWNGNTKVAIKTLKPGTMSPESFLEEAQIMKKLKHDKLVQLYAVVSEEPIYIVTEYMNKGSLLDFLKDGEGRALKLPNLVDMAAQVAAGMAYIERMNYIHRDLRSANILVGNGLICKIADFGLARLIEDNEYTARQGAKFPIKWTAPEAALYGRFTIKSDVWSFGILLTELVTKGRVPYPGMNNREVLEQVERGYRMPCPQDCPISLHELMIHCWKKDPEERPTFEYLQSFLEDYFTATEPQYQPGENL
FGFR1, sequence (P11362 whole entry, looked up): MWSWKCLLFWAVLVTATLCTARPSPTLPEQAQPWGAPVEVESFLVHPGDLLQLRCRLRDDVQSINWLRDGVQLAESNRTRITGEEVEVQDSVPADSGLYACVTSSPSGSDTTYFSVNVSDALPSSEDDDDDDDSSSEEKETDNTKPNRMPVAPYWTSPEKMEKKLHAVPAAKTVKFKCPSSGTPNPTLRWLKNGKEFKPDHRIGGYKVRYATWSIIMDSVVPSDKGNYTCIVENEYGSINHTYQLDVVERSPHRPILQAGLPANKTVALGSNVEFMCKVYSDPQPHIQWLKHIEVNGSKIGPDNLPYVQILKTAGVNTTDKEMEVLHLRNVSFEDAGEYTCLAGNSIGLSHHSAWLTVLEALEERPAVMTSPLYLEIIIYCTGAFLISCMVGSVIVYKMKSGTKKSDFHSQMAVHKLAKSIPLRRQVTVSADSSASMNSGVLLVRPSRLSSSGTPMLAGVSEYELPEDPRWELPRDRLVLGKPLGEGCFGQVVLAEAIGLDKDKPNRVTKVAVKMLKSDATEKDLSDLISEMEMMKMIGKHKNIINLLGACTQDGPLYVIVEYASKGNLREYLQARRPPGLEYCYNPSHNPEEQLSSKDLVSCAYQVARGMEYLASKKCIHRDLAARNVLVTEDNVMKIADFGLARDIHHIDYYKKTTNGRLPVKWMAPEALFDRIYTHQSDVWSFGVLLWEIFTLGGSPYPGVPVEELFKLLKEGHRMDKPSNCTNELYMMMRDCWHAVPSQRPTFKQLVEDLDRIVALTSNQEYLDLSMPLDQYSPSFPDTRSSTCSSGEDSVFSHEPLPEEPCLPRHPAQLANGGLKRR
MERTK, sequence (Q12866 whole entry, looked up): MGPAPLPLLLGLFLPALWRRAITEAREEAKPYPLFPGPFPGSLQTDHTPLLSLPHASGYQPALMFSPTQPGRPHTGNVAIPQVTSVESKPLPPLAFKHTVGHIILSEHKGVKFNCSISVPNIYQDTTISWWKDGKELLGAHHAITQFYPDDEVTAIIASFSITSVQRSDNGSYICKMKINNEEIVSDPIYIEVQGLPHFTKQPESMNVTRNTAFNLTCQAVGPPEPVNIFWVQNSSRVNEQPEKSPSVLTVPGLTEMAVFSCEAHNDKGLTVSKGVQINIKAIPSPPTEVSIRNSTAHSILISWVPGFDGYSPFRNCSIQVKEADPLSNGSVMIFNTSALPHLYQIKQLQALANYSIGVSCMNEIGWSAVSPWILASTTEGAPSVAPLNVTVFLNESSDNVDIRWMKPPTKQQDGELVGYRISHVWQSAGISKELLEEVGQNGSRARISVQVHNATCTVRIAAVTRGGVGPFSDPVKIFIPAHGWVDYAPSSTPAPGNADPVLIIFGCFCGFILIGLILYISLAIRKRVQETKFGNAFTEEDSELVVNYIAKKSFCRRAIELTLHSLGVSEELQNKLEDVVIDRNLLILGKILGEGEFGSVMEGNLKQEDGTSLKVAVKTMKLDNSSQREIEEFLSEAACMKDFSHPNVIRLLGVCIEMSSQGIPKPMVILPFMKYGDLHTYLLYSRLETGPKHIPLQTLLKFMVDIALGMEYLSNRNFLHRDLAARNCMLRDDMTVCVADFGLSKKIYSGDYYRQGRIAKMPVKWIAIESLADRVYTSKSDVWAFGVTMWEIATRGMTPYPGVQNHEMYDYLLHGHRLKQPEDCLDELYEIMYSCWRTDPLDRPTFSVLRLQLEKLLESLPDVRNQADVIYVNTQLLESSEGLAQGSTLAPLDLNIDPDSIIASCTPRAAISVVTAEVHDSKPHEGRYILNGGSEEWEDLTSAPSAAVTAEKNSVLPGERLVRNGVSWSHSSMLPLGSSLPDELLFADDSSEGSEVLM
EPHB2, sequence (P29323 whole entry, looked up): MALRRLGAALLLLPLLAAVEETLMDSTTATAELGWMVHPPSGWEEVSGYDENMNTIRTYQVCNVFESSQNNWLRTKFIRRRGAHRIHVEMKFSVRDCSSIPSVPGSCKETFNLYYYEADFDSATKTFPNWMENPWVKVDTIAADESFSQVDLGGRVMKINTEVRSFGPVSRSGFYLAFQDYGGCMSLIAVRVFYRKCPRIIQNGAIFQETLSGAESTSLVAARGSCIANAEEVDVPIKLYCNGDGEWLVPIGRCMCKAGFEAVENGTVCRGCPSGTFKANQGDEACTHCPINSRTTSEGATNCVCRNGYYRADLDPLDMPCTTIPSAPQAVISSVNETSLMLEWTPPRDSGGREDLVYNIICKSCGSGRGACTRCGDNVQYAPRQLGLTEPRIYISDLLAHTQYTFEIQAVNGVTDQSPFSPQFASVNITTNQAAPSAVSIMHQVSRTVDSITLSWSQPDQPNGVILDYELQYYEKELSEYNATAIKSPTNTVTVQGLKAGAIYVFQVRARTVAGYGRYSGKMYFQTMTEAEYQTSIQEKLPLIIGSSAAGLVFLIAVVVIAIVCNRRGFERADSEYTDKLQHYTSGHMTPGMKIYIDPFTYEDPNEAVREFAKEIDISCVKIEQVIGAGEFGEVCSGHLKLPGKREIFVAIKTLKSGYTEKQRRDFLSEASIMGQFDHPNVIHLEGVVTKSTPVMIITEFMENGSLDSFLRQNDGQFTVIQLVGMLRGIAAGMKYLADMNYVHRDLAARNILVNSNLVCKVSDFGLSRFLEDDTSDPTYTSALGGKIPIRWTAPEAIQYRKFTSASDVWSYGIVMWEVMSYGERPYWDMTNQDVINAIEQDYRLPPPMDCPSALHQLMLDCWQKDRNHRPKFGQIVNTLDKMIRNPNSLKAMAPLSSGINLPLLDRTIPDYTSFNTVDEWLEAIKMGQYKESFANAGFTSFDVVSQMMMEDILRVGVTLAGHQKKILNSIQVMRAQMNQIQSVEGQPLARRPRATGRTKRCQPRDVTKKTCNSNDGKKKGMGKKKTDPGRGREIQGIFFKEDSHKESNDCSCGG
Fes, sequence (P07332 whole entry, looked up): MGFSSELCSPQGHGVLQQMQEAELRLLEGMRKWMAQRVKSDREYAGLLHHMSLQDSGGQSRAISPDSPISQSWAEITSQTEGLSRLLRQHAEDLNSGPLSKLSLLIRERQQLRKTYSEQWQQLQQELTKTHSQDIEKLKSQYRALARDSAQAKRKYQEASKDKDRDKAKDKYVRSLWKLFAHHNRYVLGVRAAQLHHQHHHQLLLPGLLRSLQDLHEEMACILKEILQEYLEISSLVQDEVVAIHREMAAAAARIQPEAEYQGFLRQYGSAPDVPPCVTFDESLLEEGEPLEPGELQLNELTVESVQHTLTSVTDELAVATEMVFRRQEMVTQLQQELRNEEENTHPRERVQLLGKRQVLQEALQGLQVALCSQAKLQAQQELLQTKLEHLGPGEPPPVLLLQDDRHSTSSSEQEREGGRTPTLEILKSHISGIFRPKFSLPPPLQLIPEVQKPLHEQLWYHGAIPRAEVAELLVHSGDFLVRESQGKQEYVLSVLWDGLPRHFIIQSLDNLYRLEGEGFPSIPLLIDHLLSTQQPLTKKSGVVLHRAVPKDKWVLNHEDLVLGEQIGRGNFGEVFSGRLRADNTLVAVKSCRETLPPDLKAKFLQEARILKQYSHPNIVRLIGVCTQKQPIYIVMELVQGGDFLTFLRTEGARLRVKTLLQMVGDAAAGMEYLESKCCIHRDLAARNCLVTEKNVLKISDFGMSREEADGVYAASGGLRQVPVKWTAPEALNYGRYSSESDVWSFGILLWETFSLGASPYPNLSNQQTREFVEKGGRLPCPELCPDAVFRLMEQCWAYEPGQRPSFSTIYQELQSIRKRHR

SH2 binding enrichment (Grb2 SH2) | SH2 binding enrichment (SHP2-C SH2) | SH2 binding enrichment (c-Src SH2) | Sequence | phosphorylation enrichment (AncSZ) | phosphorylation enrichment (EPHB1) | phosphorylation enrichment (EPHB2) | phosphorylation enrichment (FGFR1) | phosphorylation enrichment (FGFR3) | phosphorylation enrichment (Fer (mouse)) | phosphorylation enrichment (Fes) | phosphorylation enrichment (Fyn) | phosphorylation enrichment (Hck) | phosphorylation enrichment (Jak2) | phosphorylation enrichment (MERTK) | phosphorylation enrichment (c-Abl (mouse)) | phosphorylation enrichment (c-Src)
1.08 | 1.53 | 0.882 | WGLRSYFETSK [MAGED2_Y448_YF] | 0.967 | 0.553 | 0.594 | 0.536 | 0.645 | 0.42 | 1.08 | 0.526 | 0.489 | 1.04 | 0.385 | 0.517 | 0.32
0.745 | 0.529 | 0.419 | WISNRSLDFSS [PRPH2_Y184_Y184S] | 0.646 | 0.452 | 0.469 | 0.788 | 0.583 | 0.583 | 0.765 | 0.401 | 0.427 | 0.713 | 0.408 | 0.578 | 0.321
0.871 | 0.688 | 0.62 | WISNRYLDFSS [PRPH2_Y184] | 0.961 | 0.505 | 0.535 | 0.564 | 0.676 | 0.499 | 0.946 | 0.524 | 0.577 | 0.894 | 0.54 | 0.793 | 0.705
0.697 | 0.65 | 0.524 | WKEIEYEVVRD [CPS1_Y634] | 1.31 | 0.701 | 1.2 | 0.549 | 0.754 | 0.583 | 1.09 | 0.553 | 0.609 | 0.899 | 0.384 | 0.573 | 0.473
0.861 | 1.43 | 0.527 | WNNLDYMDSRR [GAA_Y407_D404N] | 0.964 | 0.914 | 0.821 | 0.538 | 0.636 | 0.498 | 0.907 | 0.464 | 0.572 | 0.749 | 0.392 | 0.581 | 0.412
0.757 | 0.509 | 0.444 | WQQQSYLDSVI [CTNNB1_Y30_G34V] | 0.983 | 0.511 | 0.668 | 0.579 | 0.716 | 0.469 | 1.03 | 0.504 | 0.529 | 0.908 | 0.406 | 0.806 | 0.496
1.19 | 0.739 | 0.709 | WRGMPYGGRGD [TGM1_Y312_R307W] | 0.548 | 0.34 | 0.401 | 0.388 | 0.486 | 0.31 | 0.514 | 0.467 | 0.39 | 0.482 | 0.363 | 0.396 | 0.419
0.838 | 0.651 | 0.538 | WTAHSYRMGST [ARHGEF7_Y785] | 0.642 | 0.46 | 0.407 | 0.496 | 0.47 | 0.482 | 0.659 | 0.479 | 0.432 | 0.432 | 0.37 | 0.437 | 0.374
1.15 | 0.697 | 0.813 | YDAHNYHPLPV [OAT_Y55_G51D] | 0.871 | 0.923 | 1.62 | 12.7 | 7.27 | 6.52 | 0.685 | 0.864 | 2.01 | 0.848 | 3.58 | 1.05 | 0.622
1.01 | 0.848 | 0.627 | YFRDGYMPRQY [GSS_Y270] | 0.615 | 0.429 | 0.491 | 3.74 | 2.73 | 0.531 | 0.74 | 0.479 | 0.402 | 0.928 | 0.418 | 0.496 | 0.509
1.11 | 1.1 | 1.07 | YFWDGYMPRQY [GSS_Y270_R267W] | 1.01 | 0.68 | 0.521 | 10.8 | 9.39 | 0.576 | 1.18 | 0.547 | 0.783 | 5.42 | 3.96 | 0.565 | 0.772
0.608 | 0.576 | 0.464 | YGMSTYITRED [FNDC3B_Y180] | 0.972 | 0.712 | 0.584 | 0.514 | 0.683 | 0.745 | 1.25 | 0.852 | 0.873 | 1.07 | 0.46 | 0.924 | 0.981
0.885 | 0.839 | 0.713 | YIATQYSLCPR [LBR_Y166_R169C] | 1.23 | 0.511 | 0.817 | 1.73 | 1.19 | 0.606 | 0.907 | 0.67 | 0.719 | 0.873 | 1.75 | 0.716 | 0.725
0.835 | 1.39 | 0.961 | YIGVTYKNKED [PDGFRA_Y993_E996K] | 0.896 | 0.564 | 0.505 | 0.819 | 0.747 | 0.533 | 1.07 | 0.505 | 0.753 | 0.809 | 0.44 | 0.675 | 0.476
0.997 | 1.03 | 0.869 | YQGGTYSKACT [FGG_Y380_S384C] | 0.52 | 0.428 | 0.4 | 0.349 | 0.529 | 0.38 | 0.74 | 0.383 | 0.541 | 0.59 | 0.459 | 0.719 | 0.436
0.852 | 0.531 | 0.532 | YQKDVYDIPPS [NEDD9_Y177] | 0.954 | 0.788 | 3.2 | 0.528 | 0.499 | 0.611 | 0.735 | 3.66 | 3.38 | 0.614 | 7.34 | 0.734 | 3.26

Sequence | SH2 binding enrichment (Grb2 SH2) | SH2 binding enrichment (SHP2-C SH2) | SH2 binding enrichment (c-Src SH2) | phosphorylation enrichment (AncSZ) | phosphorylation enrichment (EPHB1) | phosphorylation enrichment (EPHB2) | phosphorylation enrichment (FGFR1) | phosphorylation enrichment (FGFR3) | phosphorylation enrichment (Fer (mouse)) | phosphorylation enrichment (Fes) | phosphorylation enrichment (Fyn) | phosphorylation enrichment (Hck) | phosphorylation enrichment (Jak2) | phosphorylation enrichment (MERTK) | phosphorylation enrichment (c-Abl (mouse)) | phosphorylation enrichment (c-Src)
YETDYYRKGGK [INSR_Y1190] | 0.675 | 0.676 | 0.622 | 0.668 | 0.41 | 0.419 | 0.522 | 0.492 | 0.392 | 0.864 | 0.398 | 0.469 | 0.83 | 0.427 | 0.752 | 0.338
